Legend:
Assay in all cases: cell-based or functional assay
[1] = molecular target: HIV-1 Env of isolate MGRM-C-014 (HIV-1)
[2] = molecular target: HIV-1 Env of isolate MGRM-C-015 (HIV-1)
[3] = molecular target: HIV-1 Env of isolate MGRM-C-017 (HIV-1)
[4] = molecular target: HIV-1 Env of isolate MGRM-C-019 (HIV-1)
[5] = molecular target: HIV-1 Env of isolate MGRM-C-020 (HIV-1)
[6] = molecular target: HIV-1 Env of isolate MGRM-C-022 (HIV-1)
[7] = molecular target: HIV-1 Env of isolate MGRM-C-023 (HIV-1)
[8] = molecular target: HIV-1 Env of isolate MGRM-C-024 (HIV-1)
[9] = molecular target: HIV-1 Env of isolate MGRM-C-025 (HIV-1)
[10] = molecular target: HIV-1 Env of isolate MGRM-C-026 (HIV-1)
[11] = molecular target: HIV-1 Env of isolate MGRM-C-027 (HIV-1)
[12] = molecular target: HIV-1 Env of isolate MGRM-C-028 (HIV-1)

PGT-141 (antibody), sequence (VH): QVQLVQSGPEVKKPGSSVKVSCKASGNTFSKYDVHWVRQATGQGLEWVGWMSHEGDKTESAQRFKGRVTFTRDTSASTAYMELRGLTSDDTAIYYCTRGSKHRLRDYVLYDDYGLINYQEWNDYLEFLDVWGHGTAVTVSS
PGT-141 (antibody), sequence (VL): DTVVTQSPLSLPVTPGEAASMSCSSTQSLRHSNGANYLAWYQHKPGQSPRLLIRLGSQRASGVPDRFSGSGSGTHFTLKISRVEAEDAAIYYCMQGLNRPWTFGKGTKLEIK
PGT-142 (antibody), sequence (VH): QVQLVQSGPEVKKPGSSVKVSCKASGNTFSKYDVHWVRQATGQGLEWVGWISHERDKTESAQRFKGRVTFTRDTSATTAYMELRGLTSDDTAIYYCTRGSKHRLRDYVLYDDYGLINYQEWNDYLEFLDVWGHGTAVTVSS
PGT-143 (antibody), sequence (VH): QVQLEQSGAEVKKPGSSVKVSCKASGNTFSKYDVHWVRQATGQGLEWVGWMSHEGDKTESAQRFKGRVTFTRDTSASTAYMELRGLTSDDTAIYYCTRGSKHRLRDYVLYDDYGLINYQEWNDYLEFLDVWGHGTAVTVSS
PGT-143 (antibody), sequence (VL): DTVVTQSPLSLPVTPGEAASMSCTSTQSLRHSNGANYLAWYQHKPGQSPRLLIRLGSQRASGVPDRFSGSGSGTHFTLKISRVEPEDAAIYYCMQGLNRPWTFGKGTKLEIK
PGT-144 (antibody), sequence (VH): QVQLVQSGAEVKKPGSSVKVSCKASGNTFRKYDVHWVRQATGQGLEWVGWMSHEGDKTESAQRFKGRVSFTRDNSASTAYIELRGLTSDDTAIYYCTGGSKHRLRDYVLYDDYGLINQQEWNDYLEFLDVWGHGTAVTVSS
PGT-144 (antibody), sequence (VL): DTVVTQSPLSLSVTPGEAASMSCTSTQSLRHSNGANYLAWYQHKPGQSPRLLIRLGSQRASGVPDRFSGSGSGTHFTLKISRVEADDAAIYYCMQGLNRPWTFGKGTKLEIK
PGT-145 (antibody), sequence (VH): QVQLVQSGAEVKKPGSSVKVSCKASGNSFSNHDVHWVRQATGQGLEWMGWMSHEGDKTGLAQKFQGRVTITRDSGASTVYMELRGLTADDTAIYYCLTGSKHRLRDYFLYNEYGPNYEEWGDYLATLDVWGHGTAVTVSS
PGT-145 (antibody), sequence (VL): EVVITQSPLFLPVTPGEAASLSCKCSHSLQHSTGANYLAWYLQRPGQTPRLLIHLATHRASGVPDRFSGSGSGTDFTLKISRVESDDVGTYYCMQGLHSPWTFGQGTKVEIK

PGT-142 (antibody)
IC50 (µg/mL), pseudovirus neutralization [1]: 6.02 µg/mL | IC50 (µg/mL), pseudovirus neutralization [2]: 0.038 µg/mL | IC50 (µg/mL), pseudovirus neutralization [3]: 1.11 µg/mL | IC50 (µg/mL), pseudovirus neutralization [4]: 0.003 µg/mL | IC50 (µg/mL), pseudovirus neutralization [5]: 0.446 µg/mL | IC50 (µg/mL), pseudovirus neutralization [6]: 0.086 µg/mL | IC50 (µg/mL), pseudovirus neutralization [7]: 0.087 µg/mL | IC50 (µg/mL), pseudovirus neutralization [8]: 0.03 µg/mL | IC50 (µg/mL), pseudovirus neutralization [9]: 0.183 µg/mL | IC50 (µg/mL), pseudovirus neutralization [10]: > 50 µg/mL | IC50 (µg/mL), pseudovirus neutralization [11]: 0.792 µg/mL | IC50 (µg/mL), pseudovirus neutralization [12]: 2.12 µg/mL

PGT-143 (antibody)
IC50 (µg/mL), pseudovirus neutralization [1]: 8.81 µg/mL | IC50 (µg/mL), pseudovirus neutralization [2]: 0.085 µg/mL | IC50 (µg/mL), pseudovirus neutralization [3]: 5.17 µg/mL | IC50 (µg/mL), pseudovirus neutralization [4]: 0.004 µg/mL | IC50 (µg/mL), pseudovirus neutralization [5]: 0.797 µg/mL | IC50 (µg/mL), pseudovirus neutralization [6]: 0.103 µg/mL | IC50 (µg/mL), pseudovirus neutralization [7]: 0.148 µg/mL | IC50 (µg/mL), pseudovirus neutralization [8]: 0.05 µg/mL | IC50 (µg/mL), pseudovirus neutralization [9]: 0.336 µg/mL | IC50 (µg/mL), pseudovirus neutralization [10]: > 50 µg/mL | IC50 (µg/mL), pseudovirus neutralization [11]: 0.598 µg/mL | IC50 (µg/mL), pseudovirus neutralization [12]: 12.4 µg/mL

PGT-144 (antibody)
IC50 (µg/mL), pseudovirus neutralization [1]: > 50 µg/mL | IC50 (µg/mL), pseudovirus neutralization [2]: 0.236 µg/mL | IC50 (µg/mL), pseudovirus neutralization [3]: 23 µg/mL | IC50 (µg/mL), pseudovirus neutralization [4]: 0.513 µg/mL | IC50 (µg/mL), pseudovirus neutralization [5]: 1.29 µg/mL | IC50 (µg/mL), pseudovirus neutralization [6]: 2.58 µg/mL | IC50 (µg/mL), pseudovirus neutralization [7]: 0.38 µg/mL | IC50 (µg/mL), pseudovirus neutralization [8]: 2.06 µg/mL | IC50 (µg/mL), pseudovirus neutralization [9]: 17.6 µg/mL | IC50 (µg/mL), pseudovirus neutralization [10]: > 50 µg/mL | IC50 (µg/mL), pseudovirus neutralization [11]: > 50 µg/mL | IC50 (µg/mL), pseudovirus neutralization [12]: > 50 µg/mL

PGT-145 (antibody)
IC50 (µg/mL), pseudovirus neutralization [1]: 5.82 µg/mL | IC50 (µg/mL), pseudovirus neutralization [2]: 0.12 µg/mL | IC50 (µg/mL), pseudovirus neutralization [3]: > 50 µg/mL | IC50 (µg/mL), pseudovirus neutralization [4]: 0.005 µg/mL | IC50 (µg/mL), pseudovirus neutralization [5]: 0.712 µg/mL | IC50 (µg/mL), pseudovirus neutralization [6]: 0.492 µg/mL | IC50 (µg/mL), pseudovirus neutralization [7]: 0.201 µg/mL | IC50 (µg/mL), pseudovirus neutralization [8]: 0.174 µg/mL | IC50 (µg/mL), pseudovirus neutralization [9]: 0.044 µg/mL | IC50 (µg/mL), pseudovirus neutralization [10]: > 50 µg/mL | IC50 (µg/mL), pseudovirus neutralization [11]: 0.095 µg/mL | IC50 (µg/mL), pseudovirus neutralization [12]: 0.099 µg/mL

PGT-141 (antibody)
IC50 (µg/mL), pseudovirus neutralization [1]: 11.8 µg/mL | IC50 (µg/mL), pseudovirus neutralization [2]: 0.033 µg/mL | IC50 (µg/mL), pseudovirus neutralization [3]: 4.02 µg/mL | IC50 (µg/mL), pseudovirus neutralization [4]: 0.008 µg/mL | IC50 (µg/mL), pseudovirus neutralization [5]: 1.34 µg/mL | IC50 (µg/mL), pseudovirus neutralization [6]: 0.381 µg/mL | IC50 (µg/mL), pseudovirus neutralization [7]: 0.153 µg/mL | IC50 (µg/mL), pseudovirus neutralization [8]: 0.101 µg/mL | IC50 (µg/mL), pseudovirus neutralization [9]: 0.247 µg/mL | IC50 (µg/mL), pseudovirus neutralization [10]: > 50 µg/mL | IC50 (µg/mL), pseudovirus neutralization [11]: 3.27 µg/mL | IC50 (µg/mL), pseudovirus neutralization [12]: 13.8 µg/mL
